Measured values taken from patent publication US8809001B2, “High throughput assays for inhibitors and activators of PAQR receptors” (University of Florida Research Foundation, Inc., priority 2007, dated 2014).

Assays:
[1] = system: FET3; experiment: FET3-lacZ reporter in wild type yeast carrying empty expression plasmid; format: cell-based, Saccharomyces cerevisiae; details: no human PAQR
Excerpt: Assays and growth conditions. Strains were maintained using standard protocol and grown in synthetic defined (SD) media with the appropriate amino acids to match the auxotrophies of the individual strains. Low Iron Medium (LIM) contains EDTA to limit iron-bioavailability and its composition has been previously described (Kupchak et al., 2007). […] In brief, overnights of cells grown in SD-glucose media were re-inoculated into iron-deficient LIM to induce the expression of FET3. 2% galactose was used as a carbon source to induce full expression of PAQR genes driven by the GAL1 promoter, while 0.05% galactose/1.95% raffinose was used for reduced PAQR expression. All ligands were added to the growth medium upon re-inoculation into LIM. For experiments in which steroids were added as ligands, steroids were added from ethanol stocks and “untreated” controls are actually treated with an equal volume of ethanol to control for vehicle effects. Cells were allowed to grow to mid-log phase at which time the activity of the FET3 gene was monitored using a FET3-lacZ promoter-reporter construct. lacZ activities are presented as a percentage of activity seen in untreated cells expressing the appropriate empty expression vector control. For individual experiments, each data point has been done in triplicate and the error bars represent +/−1 standard deviation. All experiments were performed at least three times and a representative experiment is shown. EC50 values were obtained using the web-based BioDataFit software using sigmoidal curve-fitting. (web site changbioscience.com/stat/ec50.html)

[2] = system: AdipoR2; experiment: FET3-lacZ (pFET3-397) reporter repression in yeast expressing AdipoR2; format: cell-based, human
AdipoR2, sequence (Q86V24 76-386 limits assumed): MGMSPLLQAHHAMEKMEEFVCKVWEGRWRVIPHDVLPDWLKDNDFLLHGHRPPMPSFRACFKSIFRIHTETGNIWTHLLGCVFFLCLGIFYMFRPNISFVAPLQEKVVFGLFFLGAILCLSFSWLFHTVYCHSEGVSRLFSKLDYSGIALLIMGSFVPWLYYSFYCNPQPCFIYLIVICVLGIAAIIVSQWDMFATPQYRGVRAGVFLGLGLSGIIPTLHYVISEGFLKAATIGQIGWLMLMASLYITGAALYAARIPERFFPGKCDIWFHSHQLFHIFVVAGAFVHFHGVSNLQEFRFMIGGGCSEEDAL
Excerpt: (§1) IZH1-4 were cloned into pRS316-GAL1 via gap repair as previously described (Lyons et al., 2004). The triple hemaglutinin epitope (3×HA) tagged construct of the IZH2 gene was generated by replacing the ZRC1 promoter and open reading frame in the YCpZRC1-HA plasmid (MacDiarmid et al., 2002) with those of IZH2. This was accomplished by gap repair of Age I-digested YCpZRC1-HA to generate pIZH2-3×HA. This construct has the IZH2 gene driven by its native promoter and retains the ZRC1 terminator sequence. The native IZH2 promoter was then exchanged with the GAL1 promoter using gap repair of pIZH2-3×HA plasmids cut with EcoN I. AdipoR1 and AdipoR2 were amplified from cDNAs obtained from OpenBiosystems (Accession #: BC010743 and BC051858, respectively). PCR products were cloned into NcoI/BamHI digested pYES260 vector (Melcher, 2000) by gap repair allowing for GAL1-driven expression. Plasmids containing GAL1-driven the TAP (Tandem Affinity Purification) tagged NRG1 and NRG2 constructs were purchased from OpenBiosystems.
Most experiments were performed in a defined EDTA-containing medium known as low iron medium (LIM) (Eide et al., 1992). Iron-deficiency and repletion were generated by adding either 1 μM or 1 mM of FeCl3, respectively, to LIM. 2% galactose was used to fully induce GAL1-driven gene overexpression. Total sugar concentration was maintained at 2% by the addition of raffinose in those experiments in which the % galactose was modulated to decrease expression levels. Cells were allowed to grow to mid-log phase in LIM and β-galactosidase assays on permeabilized yeast were performed as previously described (Lyons et al., 2000). […]
(§2) Assays and growth conditions. […] Cells were allowed to grow to mid-log phase at which time the activity of the FET3 gene was monitored using a FET3-lacZ promoter-reporter construct. lacZ activities are presented as a percentage of activity seen in untreated cells expressing the appropriate empty expression vector control. […]

[3] = target: T1, AdipoR1 (Homo sapiens, UniProt Q96A54); experiment: FET3-lacZ (pFET3-397) reporter repression in yeast expressing AdipoR1; format: cell-based; details: low levels of AdipoR1 (0.02% galactose)
T1 construct: expressed in transfected cells; host or cells: Saccharomyces cerevisiae BY4742, GAL1-driven pYES260 plasmid
T1 sequence (Q96A54 1-375): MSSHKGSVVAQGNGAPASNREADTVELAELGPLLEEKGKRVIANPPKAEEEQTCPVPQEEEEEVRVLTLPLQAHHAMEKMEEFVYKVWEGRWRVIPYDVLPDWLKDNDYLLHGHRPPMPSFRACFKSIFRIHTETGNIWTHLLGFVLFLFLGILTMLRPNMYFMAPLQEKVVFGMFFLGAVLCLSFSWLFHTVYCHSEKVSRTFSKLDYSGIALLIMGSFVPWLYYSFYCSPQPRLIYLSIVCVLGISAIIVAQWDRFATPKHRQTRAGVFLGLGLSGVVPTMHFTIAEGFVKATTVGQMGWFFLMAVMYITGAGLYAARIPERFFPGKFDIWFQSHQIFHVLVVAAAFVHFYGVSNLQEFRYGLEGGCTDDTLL
Excerpt: as §1, with “OpenBiosystems. […]” for “OpenBiosystems.”
as §2

B1: Adiponectin: insulin-sensitizing hormone, agonist of the human adiponectin receptors AdipoR1 and AdipoR2 (protein, UniProt Q15848 19-244, looked up)
Adiponectin: ETTTQGPGVLLPLPKGACTGWMAGIPGHPGHNGAPGRDGRDGTPGEKGEKGDPGLIGPKGDIGETGVPGAEGPRGFPGIQGRKGEPGEGAYVYRSAFSVGLETYVTIPNMPIRFTKIFYNQQNHYDGSTGKFHCNIPGLYYFAYHITVYMKDVKVSLFKKDKAMLFTYDQYQENNVDQASGSVLLHLEVGDQVWLQVYGEGERNGLYADNDNDSTFTGFLLYHDTN
- effect of ligand on FET3 in cells carrying empty expression plasmid [1]: did not respond
- EC50 ([2]; AdipoR2, FET3 repression in iron-deficient LIM): 2.4 pM
- pFET3-397 repression by adiponectin ([2]; AdipoR2 in 2% galactose): repressed in a dose-dependent manner
- pFET3-397 repression by adiponectin [3]: repressed in a dose-dependent manner
